Data set [1] deals with the molecule itself. The data set can be described thus: cryo-EM structure; purified FliDcj at 1 mg/ml vitrified on holey carbon grids; protein in 50 mM HEPES 150 mM NaCl pH 7; D5 symmetry (full map, 4.7 Å), C5 (head map, 5.0 Å).
Data set [2] deals with the molecule itself. The data set can be described thus: negative-stain TEM with 2D classification; purified protein on carbon-coated copper grids, 0.75% uranyl formate; ~3500 particles for FliDsm and 2700 for FliDpa, 2D class averages.
Data set [3] concerns the target T1, FliD from Pseudomonas aeruginosa, full length (P. aeruginosa), Q9K3C5.
T1 chain: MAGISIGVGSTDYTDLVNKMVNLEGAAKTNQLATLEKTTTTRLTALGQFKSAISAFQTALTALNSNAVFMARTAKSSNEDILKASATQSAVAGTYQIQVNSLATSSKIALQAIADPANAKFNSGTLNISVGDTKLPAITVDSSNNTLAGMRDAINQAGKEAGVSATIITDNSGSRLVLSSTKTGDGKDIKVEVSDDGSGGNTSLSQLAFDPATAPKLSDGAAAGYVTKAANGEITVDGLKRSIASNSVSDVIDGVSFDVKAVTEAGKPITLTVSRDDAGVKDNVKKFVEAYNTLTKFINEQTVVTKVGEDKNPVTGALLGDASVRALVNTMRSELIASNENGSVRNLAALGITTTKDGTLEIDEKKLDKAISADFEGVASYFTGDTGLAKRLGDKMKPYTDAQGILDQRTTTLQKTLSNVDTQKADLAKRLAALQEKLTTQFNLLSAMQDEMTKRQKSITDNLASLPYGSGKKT
The data set is described as above. Conditions: remark: other sources report otherwise.

A word on the stoichiometry N: it is a count of units in the complex or per binding partner.

“And” between values parts separate entries of the source, which are not always exact repeats. Equal entries are not always repeated.

B1: FliD from Campylobacter jejuni, full length (flagellum cap protein) (natural protein)
chain: MAFGSLSSLGFGSGVLTQDTIDKLKEAEQKARIDPYTKKIEENTTKQKDLTEIKTKLLSFQTAVSSLADATVFAKRKVVGSISDNPPASLTVNSGVALQSMNINVTQLAQKDVYQSKGLANDGGFVNAQLNGTADLTFFSNGKEYTVTVDKNTTYRDLADKINEASGGEIVAKIVNTGEKGTPYRLTLTSKETGEDSAISFYAGKKDSNGKYQKDINAEKIFDDLGWGLDVSASIDPDKDKKGYGIKDASLHIQTAQNAEFTLDGIKMFRSSNTVTDLGVGMTLTLNKTGEINFDVQQDFEGVTKAMQDLVDAYNDLVTNLNAATDYNSETGTKGTLQGISEVNSIRSSILADLFDSQVVDGTTEDANGNKVNTKVMLSMQDFGLSLNDAGTLSFDSSKFEQKVKEDPDSTESFFSNITKYEDINHTGEVIKTGSLSKYLNSNGGNTNGLEFKPGDFTIVFNNQTYDLSKNSDGTNFKLTGKTEEELLQNLANHINSKGIEGLKVKVESYNQNNVTGFRLNFSGDGSSDFSIKGDANILKELGLSDVNITSKPIEGKGIFSKLKATLQEMTGKDGSITKYDESLTNDIKSLNTSKDSTQAMIDTRYDTMANQWLQYESILNKLNQQLNTVTNMINAANNSNN
notes: FliD (flagellar cap protein, HAP2) of Campylobacter jejuni; gene codon-optimised for E. coli, synthesised and sub-cloned into pET28a; printed numbering runs to residue 643 (C-terminus 577-643); The D4 domain was not built in the model 6SIH; also called FliDcj; HAP2; source: E. coli BL21-CodonPlus(DE3)-RIL, purified (Ni-NTA, Superdex 200 SEC)
In the case of B1, the “stoichiometry N” value in data set [1] is 10 and 5.

B2: FliD from Serratia marcescens, full length (natural protein)
chain: MATISSLGLGSGLDLNGLLDKLTKAEQQRLTPYTTKQSSYNAQLTGYGTLKGALEKFDNLSKEMAKEDFFKATTATEHDAFKITTNAKAVPGNYVVEVNKLAQAQTLTTQAKVSDQGAKLGAEGVTDRSLTITAGNPPKETKIPLSDDQTSLVELRDAINGAKAGVTASIMRVGDNDYQLAVSSSTTGENNKISLQVDNDDQLGDILNYNATRGTGTAMKQTVAPQDAELTVNGTAIKRSTNSISDALQGVTIDLKTKTKTDEPQHLVISTNTAGTTDKIKEWVDSYNSLLDTFNALSKFTPVKTGEAPNPTNGPLLGDNTLRGIQSSIKSALSAAQDNPELKGLGNLGISTNTKTGKLEIDSAKLKKAMDEKPDQVSNFFVGNGKDTGMATEIHNEIQSYIKSGGIIENSTKSINTNLDRLNSQITTVTASIQNTIDRYKQQFVQLDTMMSKMNGTSNYLAQQFK
notes: FliD (flagellar cap protein) of Serratia marcescens; gene codon-optimised for E. coli, synthesised and sub-cloned into pET28a; The head domain of this protein is PDB 5XLJ (cited); also called FliDsm; source: E. coli BL21-CodonPlus(DE3)-RIL, purified (Ni-NTA, Superdex 200 SEC)
With B2, the “stoichiometry N” value in data set [2] is 5.

B3: FliD from Pseudomonas aeruginosa, full length, Q9K3C5 1-474 (natural protein)
chain: MAGISIGVGSTDYTDLVNKMVNLEGAAKTNQLATLEKTTTTRLTALGQFKSAISAFQTALTALNSNAVFMARTAKSSNEDILKASATQSAVAGTYQIQVNSLATSSKIALQAIADPANAKFNSGTLNISVGDTKLPAITVDSSNNTLAGMRDAINQAGKEAGVSATIITDNSGSRLVLSSTKTGDGKDIKVEVSDDGSGGNTSLSQLAFDPATAPKLSDGAAAGYVTKAANGEITVDGLKRSIASNSVSDVIDGVSFDVKAVTEAGKPITLTVSRDDAGVKDNVKKFVEAYNTLTKFINEQTVVTKVGEDKNPVTGALLGDASVRALVNTMRSELIASNENGSVRNLAALGITTTKDGTLEIDEKKLDKAISADFEGVASYFTGDTGLAKRLGDKMKPYTDAQGILDQRTTTLQKTLSNVDTQKADLAKRLAALQEKLTTQFNLLSAMQDEMTKRQKSITDNLASLPYGSGKKT
As for B3, in data set [3], the percent of particles that are pentamers was found to be 25.5% and the stoichiometry N turned out to be 5.

The values are drawn from PMC7316729, “The cryo-EM structure of the bacterial flagellum cap complex suggests a molecular mechanism for filament elongation” (Nature Communications, 2020).
